Assay results as given in the supplement of paper PMC7877785.
± gives the uncertainty stated by the source.

Assay: self-splicing fitness, log relative to wild type (ln ratio); higher = more splicing; Tetrahymena group I intron in knt gene, E. coli kanamycin selection, DiMSum; sequences stand for … in CUCUCU…GGAGGGAAAAGUUAUCAGGCAUGCACCUGGUAGCUAGUCUUUAAACCAAUAGAUUGCAUCGGUUUAAAAGGCAAGACCGUCAAAUUGCGGGAAAGGGGUCAACAGCCGUUCAGUACCAAGUCUCAGGGGAAACUUUGAGAUGGCCUUGCAAAGGGUAUGGUAAUAAGCUGACGGACAUGGUCCUAACCACGCAGCCAAGUCCUAAGUCAACAGAUCUUCUGUUGAUAUGGAUGCAGUUCACAGACUAAAUGUCGGUCGGGGAAGAUGUAUUCUUCUCAUAAGAUAUAGUCGGACCUCUCCUUAAUGGGAGCUAGCGGAUGAAGUGAUGCAACACUGGAGCCGCUGGGAACUAAUUUGUAUGCGAAAGUAUAUUGAUUAGUUUUGGAGUACUCGUGGUCG
Method in brief: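 Fitness was computed with DiMSum as the error-weighted combination of replicate fold changes, kanamycin versus none, each normalised to wild type. The library randomised all eight intron nucleotides of the P1ex region, with the intron placed in the knt kanamycin-resistance gene on pET-22b(+) in E. coli BL21(DE3). Six replicate transformations were grown overnight at 37°C or 30°C on LB agar with or without 25 μg/mL kanamycin, plus 100 μg/mL carbenicillin, 50 μM IPTG and 0.2% rhamnose. Pooled colonies were amplicon-sequenced on an Illumina HiSeq 2500.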

| Sequence | self-splicing fitness (ln) (30 °C) | self-splicing fitness (ln) (37 °C) |
| --- | --- | --- |
| UUGGAGCAAUAUUACGGUAA | -1.27 ± 0.26 | -1.01 ± 0.27 |
| UUGGAGCAAUAUUACGGUUU | -3.38 ± 0.31 | -2.9 ± 0.47 |
| UUGGAGCAAUAUUACGUAGA | -3.22 ± 0.27 | -1.77 ± 0.18 |
| UUGGAGCAAUAUUACGUAGG | -3.11 ± 0.23 | -1.86 ± 0.15 |
| UUGGAGCAAUAUUACGUAUA | -2.08 ± 0.44 | – |
| UUGGAGCAAUAUUACGUGAG | -1.84 ± 0.13 | -1.54 ± 0.2 |
| UUGGAGCAAUAUUACGUUAC | -3.66 ± 0.33 | -2.25 ± 0.24 |
| UUGGAGCAAUAUUACGUUUA | -2.44 ± 0.44 | – |
| UUGUAGCAAUAUUACGAAAG | -2.43 ± 0.32 | -2.69 ± 0.34 |
| UUGUAGCAAUAUUACGAAUG | -3.32 ± 0.41 | -1.93 ± 0.29 |
| UUGUAGCAAUAUUACGACCG | -0.716 ± 0.36 | -0.156 ± 0.26 |
| UUGUAGCAAUAUUACGACGA | -1.08 ± 0.26 | -0.0034 ± 0.36 |
| UUGUAGCAAUAUUACGACUU | -0.894 ± 0.3 | 0.769 ± 0.36 |
| UUGUAGCAAUAUUACGAGUC | -3.94 ± 0.42 | -2.67 ± 0.32 |
| UUGUAGCAAUAUUACGAUUA | -0.945 ± 0.11 | -0.211 ± 0.1 |
| UUGUAGCAAUAUUACGCAGA | -2.2 ± 0.35 | -0.763 ± 0.28 |
| UUGUAGCAAUAUUACGCCGC | – | -2.68 ± 0.4 |
| UUGUAGCAAUAUUACGCCUA | -0.297 ± 0.12 | 0.0606 ± 0.13 |
| UUGUAGCAAUAUUACGCCUC | -2.07 ± 0.48 | – |
| UUGUAGCAAUAUUACGCCUU | -0.585 ± 0.17 | 0.0387 ± 0.17 |
| UUGUAGCAAUAUUACGCUUG | -0.622 ± 0.12 | -0.277 ± 0.13 |
| UUGUAGCAAUAUUACGCUUU | – | -2.81 ± 0.31 |
| UUGUAGCAAUAUUACGGAGA | – | -2.21 ± 0.42 |
| UUGUAGCAAUAUUACGGAUC | -3.53 ± 0.3 | -2.48 ± 0.26 |
| UUGUAGCAAUAUUACGGCCU | -0.844 ± 0.2 | -0.408 ± 0.25 |
| UUGUAGCAAUAUUACGGGCC | – | -1.69 ± 0.38 |
| UUGUAGCAAUAUUACGGUGU | -2.41 ± 0.42 | -2.3 ± 0.26 |

| Sequence | self-splicing fitness (ln) (30 °C) | self-splicing fitness (ln) (37 °C) |
| --- | --- | --- |
| UUGUAGCAAUAUUACGGUUA | -1.41 ± 0.14 | -0.784 ± 0.13 |
| UUGUAGCAAUAUUACGUAGC | -3.44 ± 0.31 | -2.87 ± 0.25 |
| UUGUAGCAAUAUUACGUCAG | -1.12 ± 0.22 | -0.45 ± 0.19 |
| UUGUAGCAAUAUUACGUGCA | -2.4 ± 0.15 | -1.14 ± 0.18 |
| UUGUAGCAAUAUUACGUGUC | -3.17 ± 0.15 | – |
| UUUAAGCAAUAUUACGAAUC | -2.96 ± 0.28 | -1.04 ± 0.25 |
| UUUAAGCAAUAUUACGAGCA | -1.38 ± 0.21 | -0.686 ± 0.22 |
| UUUAAGCAAUAUUACGAGCU | -2.94 ± 0.22 | -0.0484 ± 0.17 |
| UUUAAGCAAUAUUACGCACA | -0.157 ± 0.068 | 0.181 ± 0.086 |
| UUUAAGCAAUAUUACGCCAU | – | -2.36 ± 0.29 |
| UUUAAGCAAUAUUACGCCGU | -1.49 ± 0.41 | -1.84 ± 0.27 |
| UUUAAGCAAUAUUACGCUAG | -1.54 ± 0.15 | -0.671 ± 0.2 |
| UUUAAGCAAUAUUACGCUGA | -2.47 ± 0.2 | -0.978 ± 0.15 |
| UUUAAGCAAUAUUACGCUUC | -2.24 ± 0.35 | – |
| UUUAAGCAAUAUUACGGAAU | -3.63 ± 0.26 | -2.36 ± 0.33 |
| UUUAAGCAAUAUUACGGCCG | -0.19 ± 0.21 | -0.0514 ± 0.26 |
| UUUAAGCAAUAUUACGGCGC | -1.15 ± 0.17 | -0.784 ± 0.23 |
| UUUAAGCAAUAUUACGGCUU | -1.8 ± 0.14 | -1.86 ± 0.27 |
| UUUAAGCAAUAUUACGGGAC | -1.77 ± 0.16 | -2 ± 0.42 |
| UUUAAGCAAUAUUACGGGCU | -2.91 ± 0.3 | -2.18 ± 0.3 |
| UUUAAGCAAUAUUACGGUGA | -1.11 ± 0.11 | -0.554 ± 0.12 |
| UUUAAGCAAUAUUACGGUGU | -3.85 ± 0.28 | -2.3 ± 0.35 |
| UUUAAGCAAUAUUACGUAAU | -2.15 ± 0.11 | -1.74 ± 0.12 |
| UUUAAGCAAUAUUACGUACA | -0.498 ± 0.12 | 0.0487 ± 0.14 |
| UUUAAGCAAUAUUACGUCAG | -0.728 ± 0.12 | -0.571 ± 0.12 |
| UUUAAGCAAUAUUACGUGAC | -3.33 ± 0.21 | -2.11 ± 0.21 |
| UUUAAGCAAUAUUACGUGAU | -2.59 ± 0.15 | -1.67 ± 0.21 |

| Sequence | self-splicing fitness (ln) (30 °C) | self-splicing fitness (ln) (37 °C) |
| --- | --- | --- |
| UUUAAGCAAUAUUACGUGGG | -2.92 ± 0.13 | -2.1 ± 0.17 |
| UUUAAGCAAUAUUACGUUUC | -3.96 ± 0.35 | -3.19 ± 0.4 |
| UUUAAGCAAUAUUACGUUUU | -3.93 ± 0.2 | -1.22 ± 0.16 |
| UUUCAGCAAUAUUACGAAAC | – | -2.53 ± 0.3 |
| UUUCAGCAAUAUUACGAGCA | -1.41 ± 0.14 | -0.671 ± 0.12 |
| UUUCAGCAAUAUUACGAUCA | 0.131 ± 0.14 | 0.086 ± 0.14 |
| UUUCAGCAAUAUUACGAUGU | -2.13 ± 0.13 | -1.47 ± 0.15 |
| UUUCAGCAAUAUUACGCAAA | -2.1 ± 0.15 | -0.378 ± 0.13 |
| UUUCAGCAAUAUUACGCAGU | -4.25 ± 0.31 | -1.59 ± 0.17 |
| UUUCAGCAAUAUUACGCGAC | -2.9 ± 0.37 | – |
| UUUCAGCAAUAUUACGCUAA | -1.25 ± 0.18 | -0.815 ± 0.17 |
| UUUCAGCAAUAUUACGCUUU | -2.69 ± 0.14 | -1.52 ± 0.13 |
| UUUCAGCAAUAUUACGGAAC | -1.24 ± 0.22 | – |
| UUUCAGCAAUAUUACGGACU | -0.982 ± 0.13 | -0.184 ± 0.11 |
| UUUCAGCAAUAUUACGGAGA | -1.26 ± 0.14 | -1.13 ± 0.22 |
| UUUCAGCAAUAUUACGGAUG | -0.64 ± 0.064 | 0.256 ± 0.096 |
| UUUCAGCAAUAUUACGGGAA | -1.96 ± 0.2 | -1.93 ± 0.21 |
| UUUCAGCAAUAUUACGGGGC | -2.91 ± 0.18 | -3.35 ± 0.31 |
| UUUCAGCAAUAUUACGGGGU | -3.58 ± 0.17 | -1.68 ± 0.15 |
| UUUCAGCAAUAUUACGGUAG | -0.521 ± 0.088 | -0.526 ± 0.12 |
| UUUCAGCAAUAUUACGUAAU | -2.89 ± 0.14 | -1.58 ± 0.16 |
| UUUCAGCAAUAUUACGUAGG | -0.515 ± 0.068 | -0.741 ± 0.11 |
| UUUCAGCAAUAUUACGUCAU | -3.32 ± 0.24 | -2.47 ± 0.35 |
| UUUCAGCAAUAUUACGUGAA | -0.761 ± 0.061 | -0.17 ± 0.088 |
| UUUCAGCAAUAUUACGUGGU | -3.84 ± 0.2 | -3.02 ± 0.21 |
